Reference: patent publication US20060142223A1

Biological target: human F0F1-ATP synthase (complex V) (human)
Test: cell-based or functional assay

mitochondrial (oligomycin-sensitive) ATP synthesis in mutant (8993G) cybrids stably transfected with pCrA6F, against untransfected mutant cybrids: 75%
B1: mature CrATP6F polypeptide (Chlamydomonas reinhardtii ATPase 6 subunit of F0F1-ATP synthase with C-terminal FLAG epitope tag, after cleavage of the … (protein)
chain: STAAQVQSGATVNSLLLGIYRFWRSQAPMDKPHAPVDDRMLPAIVDASDNRAALGTWATALFCTILASNLLGLVPTNEAPTSGLGFATGLGVSVWATATTLGLYKLGFSFPGHFIPGGTPWPMAFIFVPLETISYTFRAVSLGVRLWVNMLAGHTLLHILTGMALALPFSLSFFAMVPATFAVACLLSALVGLEYLVAVLQSGVFSILSTVYVGEFNSVKLAGPLAKVVKKALDYKDDDDK
